Laboratory results from the supplement of paper PMC10567573.
± gives the standard deviation.

Test: protein stability index of a GFP-peptide fusion (GPS, HEK-293T) (PSI 1-6); higher = more stable
[1] = treatment: DMSO, c terminus: a fixed tail appended
[2] = treatment: MLN4924 1 uM, 8 h, c terminus: a fixed tail appended
[3] = treatment: DMSO, c terminus: native
[4] = treatment: MLN4924 1 uM, 8 h, c terminus: native
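Further: 24-mer peptide tiles fused after GFP, lentivirally expressed, FACS-sorted into six equal bins by GFP/DsRed ratio, decoded by Illumina sequencing, PSI is the read-weighted mean bin number.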

Sequence	protein stability index [1]	protein stability index [2]	protein stability index [3]	protein stability index [4]
EDQVPALEAPEDIGSTSESKDWEE [MIA2]	5.8 ± 0.12	5.71 ± 0.27	–	–
EDQYIFIHDALLEAVTCGNTEVPA [PTPRD]	3.1 ± 0.32	3.01 ± 0.31	–	–
EEEAASPEGKRVPKRLRCWEEEED [FANCE]	5.4 ± 0.42	5.38 ± 0.21	–	–
EEFPKREDQEGSPPETSLPYKWVV [MYBL2]	3.83 ± 0.33	3.99 ± 0.41	–	–
EEHSLEQVQSMVVGEVLKDIETAC [SPDEF]	4.8 ± 0.26	4.85 ± 0.091	–	–
EEIKTWGTVFQELNKLYPTHACRE [TPH1]	2.95 ± 0.23	3.02 ± 0.28	–	–
EEKRRREEEERLRREEEERRRIEE [ACBD3]	5.53 ± 0.29	5.49 ± 0.28	–	–
EEPRPSRPRYKADVPDLQSVCSCT [KCNK9]	4.62 ± 0.13	4.55 ± 0.19	–	–
EERASLAGNRNSMVIHIPEEPRPS [KCNK9]	4.82 ± 0.13	4.94 ± 0.38	–	–
EESRFCDAHLVLDGEEIPVQKNIL [GAN]	4.73 ± 0.22	4.68 ± 0.073	–	–
EETGSRFHNCLIQLYCEKVQGLMK [VPS39]	2.48 ± 0.45	2.45 ± 0.5	–	–
EEVKTPEEEMRSHYVAQTGILWLL [GAGE1]	2.11 ± 0.31	2.44 ± 0.49	–	–
EFSVPFTEMKLRPRNFRSPAGGG [TNXB]	–	–	3.4 ± 1.1	3.09 ± 1.1
EGVIDSSDKEIVAEAERLDVKAMG [EIF5]	5.34 ± 0.12	5.35 ± 0.15	–	–
EIENVKKQASNLETAIADAEQRGD [KRT71]	5.29 ± 0.49	5.42 ± 0.3	–	–
EIITQSPGRSSVASPRRLSNVSSS [MAP2]	3.43 ± 0.18	3.66 ± 0.2	–	–
EIYKRFLTRMTRVSEFLKVAEQVG [SNAP91]	2.44 ± 0.63	2.45 ± 0.24	–	–
EKAAALERQLKVMASDHREALLDR [LRRC45]	4.41 ± 0.17	4.49 ± 0.46	–	–
EKPYGCSECGKAFPRKSELTEHQR [ZNF649]	3.95 ± 0.49	4.44 ± 0.52	–	–
ELAGVDTELLAERFYYQALSVAPQ [SMG5]	2.68 ± 0.25	2.88 ± 0.16	–	–
ELHEECEGNHPSARKLTAQRRAST [NET1]	4.92 ± 0.21	5.09 ± 0.15	–	–
ELHPESGEEAVTLVEDMQRELGRL [ZNF263]	4.88 ± 0.41	5.13 ± 0.26	–	–

Sequence	protein stability index [1]	protein stability index [2]	protein stability index [3]	protein stability index [4]
ELLCELGRPSMVWLSANPCPHCGD [PRAME]	2.08 ± 0.043	2.28 ± 0.31	–	–
ELNKQVVSSSEQLQSCQAEIIELR [KRT34]	3.82 ± 0.33	4.04 ± 0.53	–	–
ELSRSRKLYGQRERVWALAQEKAA [FCHSD1]	3.04 ± 0.33	3.47 ± 0.22	–	–
ELTATFTKFDRDGNRILDEKEQEK [PKD2L1]	5.38 ± 0.11	5.17 ± 0.18	–	–
ENANLQEYVEKETQEKKRLSRTNE [MTUS2]	5.33 ± 0.45	5.35 ± 0.18	–	–
ENCTLVTTFRGHTGGVTALCWDPV [WDFY2]	2.53 ± 0.32	2.38 ± 0.18	–	–
ENTCLLRGFSGGILAFLVLEAVAG [TSPAN10]	3.27 ± 0.15	2.58 ± 0.41	–	–
EPEQTGADAAEDEEVDVTSVDPIA [RBBP5]	5.64 ± 0.18	5.55 ± 0.33	–	–
EPMWSGSTMRRMALRPTAFSGCLN [EMID1]	2.82 ± 0.27	2.79 ± 0.16	–	–
EPNTFSPANVDASVMFRKWRDSKG [UBE2R2]	4.16 ± 0.46	4.4 ± 0.3	–	–
EPPEEPEQCPVIDSQAPAGSLDLV [SPDEF]	5.37 ± 0.17	5.51 ± 0.18	–	–
EPPPVKQELPPYNGFGLVEDSAQN [EFHC1]	5.15 ± 0.059	5.15 ± 0.066	–	–
EPRQRRLLLLDLLALYTPVGAAGS [ANKRD9]	2.65 ± 0.57	2.44 ± 0.88	–	–
EQNQEGDAAYRKALDLAREFLPQG [AUH]	4.42 ± 0.19	4.44 ± 0.37	–	–
ERDIEIGFLPWLMNEVEKTMEYSM [RSPH3]	2.41 ± 0.46	2.42 ± 0.18	–	–
ERELLGQDEETAMRKSLGEEELS [RSPH3]	–	–	5.48 ± 0.4	5.575 ± 0.042
ERERQPCGDGNTETHRAPDLVQWT [SOAT2]	4.92 ± 0.06	4.65 ± 0.24	–	–
ERLVVLDYIIRNTDRGNDNWLIKY [PI4K2A]	2.2 ± 0.65	2.49 ± 0.65	–	–
ESCEEKNQLILTASADRTVIVWDG [WDR41]	4.01 ± 0.085	3.79 ± 0.1	–	–
ESDSCVSFEAPLTPLIQQRARDSP [PSD2]	5.02 ± 0.16	4.92 ± 0.24	–	–
ESGVSVSNSQPTNESHSIKAILKN [SLC29A1]	5.03 ± 0.53	4.9 ± 0.46	–	–
ESKVKDILSKVQKNHVGKPLLKMD [FAM98B]	3.49 ± 0.17	3.79 ± 0.19	–	–

Sequence	protein stability index [1]	protein stability index [2]	protein stability index [3]	protein stability index [4]
ESRKSKRRNSEFEIFVDCDINREQ [TPH1]	4.85 ± 0.31	4.92 ± 0.59	–	–
ETIEGAPPLWAASAAGHLDVVRSL [FEM1A]	3.78 ± 0.16	3.72 ± 0.13	–	–
ETSRSHDLEAVVPQNGSETGWARK [ATP23]	4.95 ± 0.2	5.21 ± 0.12	–	–
EVEEADGNKQWWFGGGCDLTPTYL [CPOX]	3.43 ± 0.49	3.36 ± 0.39	–	–
EVEGTKPSATEMIWAVLAAFNKS [GOLPH3L]	–	–	2.4 ± 0.18	2.4 ± 0.33
EVEIVGVQEHARCVHPRGGVIQSV [C18orf25]	3.45 ± 0.35	3.6 ± 0.31	–	–
EVVNMAVIVPKEEGVISVSEDRTV [WDFY2]	4.04 ± 0.42	4.22 ± 0.34	–	–
FACPSKTDFFKNIMNFIDIVAIIP [KCNA1]	3.29 ± 0.58	3.1 ± 0.49	–	–
FAELSVDMEKILEIIRVILKLYEQ [CCNC]	2.2 ± 0.12	2.69 ± 0.25	–	–
FDDEEPRKFYVHIKPAPARAPACS [FCHO1]	3.27 ± 0.14	3.29 ± 0.38	–	–
FDEPFLTRNVQSVSIIDTELKVKD [TRIP13]	4.65 ± 0.19	4.49 ± 0.068	–	–
FDGTAHLSSVEAYNIRTDSWTTVT [KLHL12]	2.58 ± 0.38	2.62 ± 0.52	–	–
FDTFIQKTKKLYIDSRARRNLGSI [SEC22B]	2.48 ± 0.5	2.22 ± 0.12	–	–
FEPVKSFFKGLVEAVESTLQTPLD [TRIM14]	2.19 ± 0.2	2.4 ± 0.23	–	–
FEQGKWDVFSENLLADVKGARAAL [STX11]	2.67 ± 0.14	2.72 ± 0.45	–	–
FEQYCAWQLFLAHNIPLETIIPIL [INTS3]	3.27 ± 0.74	2.85 ± 0.34	–	–
FFFRHGHRGLLTMQLKSPMPSSTT [SPAG8]	2.14 ± 0.26	2 ± 0.23	–	–
FFVPLSYLLMVTVILLPYVSKVTG [TMEM175]	3.33 ± 0.26	3.11 ± 0.31	–	–
FGSRSLYSLGGVRSLNVASGSGKS [KRT71]	2.35 ± 0.77	3.01 ± 0.82	–	–
FKDYIQERSDPVEQGKPVIPAAVL [ETS2]	4.08 ± 0.2	3.97 ± 0.27	–	–
FLAENSAFPKMALQAKQDGKKDVS [LCOR]	4.23 ± 0.29	4.36 ± 0.36	–	–
